# B1: ScFv A: single chain antibody from VL and VH of Fab A with (Gly3Ser)3 linker and His tag (protein)
# scFv: ELTQSPGTLSSSPGHRATLSCKASAPLGSNHMAWYQQKPGQAPRLLIYGASTRATGVPARFTGSGSGTDFTLTISSLQPEDFATYYCQQANSFPRTFGQGTKVEIKGGGSGGGSGGGSLESGGGVVQPGRSLRLSCAASGFTFTTFAMHWVRQAPGKGLEWLAFISYDGSNKYYADSVKGRFTISRDNSKNTLYLQMNSLRAEDTSIYYCAREVWNYADYWGQGALVTVSS
# modifications: left off: small tags and cut ends
# notes: single chain antibody from VL and VH of Fab A with (Gly3Ser)3 linker and His tag
# B2: IgGA: IgG1 Fab Ex2 converted into a full IgG1, identified as IgGA (antibody, V domains shown)
# VH: LESGGGVVQPGRSLRLSCAASGFTFTTFAMHWVRQAPGKGLEWLAFISYDGSNKYYADSVKGRFTISRDNSKNTLYLQMNSLRAEDTSIYYCAREVWNYADYWGQGALVTVSS
# VL: ELTQSPGTLSSSPGHRATLSCKASAPLGSNHMAWYQQKPGQAPRLLIYGASTRATGVPARFTGSGSGTDFTLTISSLQPEDFATYYCQQANSFPRTFGQGTKVEIK
# How the values were obtained:
# [1] = tested on: HSV-2 MS; assay: Post-HSV entry combination (synergy) assay, combination index; assay type: cell-based; details: 0.5 ug/mL
# Description: Results obtained in the double curve assay were then analysed in silico in a ComboSyn analysis (CompuSyn for Drug Combinations and for General Dose-Effect Analysis by Ting-Chao Chou Memorial Sloan-Keltering Cancer Center New York, N.Y. and Nick Martin Massachustts Institute of Technology Cambridge, Mass.) to evaluate the potential synergies between IgGA and ACV, through the calculation of Combination Index (CI) and Dose Reduction Index (DRI).
# The combination index (CI) according to Chou 2006 (23) indicates nearly additive activity in the range of 0.9-1.1, synergism under 0.9, strong synergism between 0.1 and 0.3 and very strong synergism under 0.1. Values of CI over 1.1 indicate antagonism. […]
# The first step in IgGA/FOS combination activity evaluation has been the assessment of drug susceptibility for the two chosen HSV isolates already used for the Example 2. […] Combination index was calculated as in Example 2 to assess the synergism between IgGA and FOS. […]
# The first step in IgGA/PCV combination activity evaluation has been the assessment of drug susceptibility for the two chosen HSV isolates (HSV-1 LV and HSV-2 MS). […] Combination index was calculated as in Example 2 to assess the synergism between IgGA and PCV. […]
# [2] = tested on: HSV infected cells; assay: IIF binding assay of ScFv A; details: ScFv format
# Description: ScFv gene of IgGA was successfully constructed and cloned into expression vector. ScFv format small scale production of IgGA was performed. The binding activity of ScFv A was evaluated by IIF assays on HSV infected cells.
# [3] = tested on: HSV-1 tested isolates; assay: Neutralising activity against clinical isolates (pre-incubation with virus); assay type: cell-based; details: isolates with different susceptibility to Acyclovir; pre-incubation 1 h at 37° C.
# Description: (§1) The neutralising activity of FabA or IgGA was evaluated by pre-incubating (1 h at 37° C.) the IgGA with the virus and adding the IgGA/virus-mixture to cell monolayer.
# [4] = tested on: HSV-2 tested isolates; assay: as above; assay type: cell-based; details: isolates with different susceptibility to Acyclovir; pre-incubation 1 h at 37° C.
# Description: as §1
# [5] = tested on: HSV-1; assay: Post adsorption inhibition of infection (plaque count); assay type: cell-based; details: IgG 25 ug/mL added 30 minutes after infection; 48 h; VERO E6
# Description: (§2) Post-adsorption assays have been developed in order to speculate on possible administration of IgGA for the treatment of HSV infection, after the beginning of virus active replication within the host.
# (§3) The first step of experimental approaches, involving post-HSV adsorption evaluation of FabA or IgGA, is the infection of VERO E6 cells with a standard amount of HSV not previously treated with the FabA or IgGA.
# (§4) FabA or IgGA is added to the infected cells only after 30 minutes from virus infection. The infection is then carried out for 48 h in order to appreciate the HSV lysis plaques on VERO E6 cells. The experimental results have been evaluated by counting the plaques for infected cells receiving (post-HSV infection) FabA or IgGA compared to virus experimental positive control.
# (§5) Fabs tested in post-adsorption assays have been used at a concentration of 50 and 200 ug/mL against HSV-1 and HSV-2 tested isolates respectively*.
# (§6) IgGs tested in post-adsorption assays have been used at a concentration of 25 and 100 ug/mL against HSV-1 and HSV-2 tested isolates respectively*.
# [6] = tested on: HSV-2; assay: as above; assay type: cell-based; details: IgG 100 ug/mL added 30 minutes after infection; 48 h; VERO E6
# Description: as §2, §3, §4, §5, §6
# [7] = tested on: HSV-1; assay: Cell-to-cell infection inhibition (plaque areas, post-adsorption); assay type: cell-based; details: Fabs 50 ug/mL, IgGs 25 ug/mL
# Description: (§7) Post post-adsorption assays have been performed in order to evaluate the contribution of IgGA in inhibiting “cell-to-cell” infection by measuring the plaque areas resulting from infected cells treated or untreated with FabA or IgGA.
# (§8) Fabs tested in post-adsorption cell-to-cell infection inhibition assays have also been preliminary used at a concentration of 50 and 200 ug/mL against HSV-1 and HSV-2 tested isolates respectively*.
# (§9) IgGs tested in post-adsorption “cell-to-cell” infection inhibition assays have also been preliminary used at a concentration of 25 and 100 ug/mL against HSV-1 and HSV-2 tested isolates respectively*.
# [8] = tested on: HSV-2; assay: as above; assay type: cell-based; details: Fabs 200 ug/mL, IgGs 100 ug/mL
# Description: as §7, §8, §9
# [9] = tested on: HSV-1 HF strain; assay: Emergence of escape mutants under selective pressure; assay type: cell-based; details: selective pressure at 5 and 10 ug/mL; sequential infection rounds
# Source text: In order to evaluate the presence of escape virus mutants generated under selective pressure of IgGA, HSV-1 infected VERO-E6 cells have been treated with increasing concentrations of Fab A. More in details, VERO cells have been cultured in T25 flasks in the experimental conditions extensively described in the previous reports (“virus propagation techniques”). Cell monolayers have been then infected by HSV-1 HF strain using 50 pfu/mL of cell free virus. […] […] After three days the infected cell media have been collected and centrifuged in order to use medium centrifuged supernatants for new cell infection rounds. […] Five sequential identical infection rounds have been performed in the presence of the two concentrations of IgGA and control IgG above described. […] In order to test the capability of virus cultured in the constant presence of IgGA to escape from IgGA inhibitory activity the cell free supernatants belonging to the final infections in the presence of IgGA have been incubated 1 h at 37° C. in the presence of high IgGA concentration. After pre-incubation the neutralization mix has been used to infect new VERO-E6 cells.
# VERO-E6 monolayers were infected with HSV-1 HF strain using 50 pfu/mL of cell free virus. After virus complete adsorption, the infected cells were treated for three days with subinhibitory concentrations of IgGA, namely 0.2 mg/ml and 1 mg/ml. […]
molecule,measurement,setting,value
"O=C(O)P(=O)(O)O [FOS, Foscarnet]",activity of FOS alone against HSV-2,[1],nearly ineffective
B1,IIF signal and binding level,[2],high IIF background signal and low binding
same,recognition of HSV infected cells in IIF,[2],able to recognize HSV infected cells
B2,neutralisation of HSV-1 isolates,[3],potently neutralises
same,neutralisation of HSV-2 isolates,[4],potently neutralises
same,"post-adsorption inhibition of new infection events and infectious foci (plaques), HSV-1",[5],strongly inhibits
same,"post-adsorption inhibition of new infection events and infectious foci (plaques), HSV-2",[6],strongly inhibits
same,"inhibition of plaque areas (cell-to-cell infection), HSV-1",[7],even higher than Fab A inhibition activity
same,"inhibition of plaque areas (cell-to-cell infection), HSV-2",[8],even higher than Fab A inhibition activity
same,generation of escape mutants under selective pressure,[9],no “escape mutants” have been generated
same,generation of escape mutants under selective pressure (Example 1),[9],no “escape mutants” were generated
